Tests used:
4H1392-AA = target: T1, 4H1392-AA; assay: two-hybrid library CCmax;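 note: natural log of median RNA to DNA barcode read ratio; higher means stronger binding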
T1 chain: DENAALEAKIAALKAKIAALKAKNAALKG

4H2622-AA = target: T2, 4H2622-AA; assay: two-hybrid library CCmax; conditions: mean of both orientations;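 note: natural log of median RNA to DNA barcode read ratio; higher means stronger binding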
T2 chain: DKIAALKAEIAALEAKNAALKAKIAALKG

4H2705-AA = target: T3, 4H2705-AA; assay: two-hybrid library CCmax; conditions: mean of both orientations;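 note: natural log of median RNA to DNA barcode read ratio; higher means stronger binding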
T3 chain: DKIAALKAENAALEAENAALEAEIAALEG

4H2736-AA = target: T4, 4H2736-AA; assay: two-hybrid library CCmax; conditions: mean of both orientations;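 note: natural log of median RNA to DNA barcode read ratio; higher means stronger binding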
T4 chain: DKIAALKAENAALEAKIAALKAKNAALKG

4H2888-AA = target: T5, 4H2888-AA; assay: two-hybrid library CCmax; conditions: mean of both orientations;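 note: natural log of median RNA to DNA barcode read ratio; higher means stronger binding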
T5 chain: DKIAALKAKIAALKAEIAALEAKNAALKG

4H3049-AA = target: T6, 4H3049-AA; assay: two-hybrid library CCmax; conditions: mean of both orientations;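 note: natural log of median RNA to DNA barcode read ratio; higher means stronger binding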
T6 chain: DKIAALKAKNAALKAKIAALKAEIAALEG

4H3129-AA = target: T7, 4H3129-AA; assay: two-hybrid library CCmax
T7 chain: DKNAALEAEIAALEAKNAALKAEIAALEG

4H337-AA = target: T8, 4H337-AA; assay: two-hybrid library CCmax; conditions: mean of both orientations
T8 chain: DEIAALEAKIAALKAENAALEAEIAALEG

4H3587-AA = target: T9, 4H3587-AA; assay: two-hybrid library CCmax; conditions: mean of both orientations
T9 chain: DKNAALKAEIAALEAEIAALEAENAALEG

4H3590-AA = target: T10, 4H3590-AA; assay: two-hybrid library CCmax; conditions: mean of both orientations
T10 chain: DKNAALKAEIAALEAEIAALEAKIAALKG

4H3625-AA = target: T11, 4H3625-AA; assay: two-hybrid library CCmax; conditions: mean of both orientations
T11 chain: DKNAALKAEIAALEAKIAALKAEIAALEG

4H384-AA = target: T12, 4H384-AA; assay: two-hybrid library CCmax; conditions: mean of both orientations
T12 chain: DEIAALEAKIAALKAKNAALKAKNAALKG

4H3905-AA = target: T13, 4H3905-AA; assay: two-hybrid library CCmax; conditions: mean of both orientations
T13 chain: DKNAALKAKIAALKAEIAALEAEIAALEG

4H4038-AA = target: T14, 4H4038-AA; assay: two-hybrid library CCmax; conditions: mean of both orientations
T14 chain: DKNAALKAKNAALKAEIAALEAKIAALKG

4H43-AA = target: T15, 4H43-AA; assay: two-hybrid library CCmax; conditions: mean of both orientations
T15 chain: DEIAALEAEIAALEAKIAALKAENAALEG

4H451-AA = target: T16, 4H451-AA; assay: two-hybrid library CCmax; conditions: mean of both orientations
T16 chain: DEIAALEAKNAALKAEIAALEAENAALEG

4H510-AA = target: T17, 4H510-AA; assay: two-hybrid library CCmax; conditions: mean of both orientations
T17 chain: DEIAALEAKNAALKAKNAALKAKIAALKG

4H_APH = target: T18, 4H_APH; assay: two-hybrid library CCmax; conditions: mean of both orientations
T18 chain: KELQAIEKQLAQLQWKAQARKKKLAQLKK

4H_BCR = target: T19, 4H_BCR; assay: two-hybrid library CCmax; conditions: mean of both orientations
T19 chain: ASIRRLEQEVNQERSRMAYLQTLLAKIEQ

4H_GCN4 = assay: two-hybrid library CCmax
GCN2_T = assay: two-hybrid library CCmax
O11-AA = target: T20, O11-AA; assay: two-hybrid library CCmax; conditions: mean of both orientations
T20 chain: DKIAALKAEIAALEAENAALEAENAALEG

O13-AA = target: T21, O13-AA; assay: two-hybrid library CCmax; conditions: mean of both orientations
T21 chain: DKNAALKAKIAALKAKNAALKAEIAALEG

O14-AA = target: T22, O14-AA; assay: two-hybrid library CCmax; conditions: mean of both orientations
T22 chain: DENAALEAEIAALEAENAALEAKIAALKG

O13 = target: T23, O13; assay: two-hybrid library CCNG1
T23 chain: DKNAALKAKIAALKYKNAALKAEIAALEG

O14 = target: T24, O14; assay: two-hybrid library CCNG1
T24 chain: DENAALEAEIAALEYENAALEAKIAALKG

O15 = target: T25, O15; assay: two-hybrid library CCNG1
T25 chain: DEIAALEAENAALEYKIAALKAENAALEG

O16 = target: T26, O16; assay: two-hybrid library CCNG1
T26 chain: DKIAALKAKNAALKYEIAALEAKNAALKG

O2 = target: T27, O2; assay: two-hybrid library CCNG1
T27 chain: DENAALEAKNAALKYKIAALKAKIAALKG

O3 = target: T28, O3; assay: two-hybrid library CCNG1
T28 chain: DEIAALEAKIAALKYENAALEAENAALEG

O4 = target: T29, O4; assay: two-hybrid library CCNG1
T29 chain: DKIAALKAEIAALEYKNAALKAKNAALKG

O5 = target: T30, O5; assay: two-hybrid library CCNG1
T30 chain: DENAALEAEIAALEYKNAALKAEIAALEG

O6 = target: T31, O6; assay: two-hybrid library CCNG1
T31 chain: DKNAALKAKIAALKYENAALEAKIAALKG

O7 = target: T32, O7; assay: two-hybrid library CCNG1
T32 chain: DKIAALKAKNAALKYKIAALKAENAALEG

O8 = target: T33, O8; assay: two-hybrid library CCNG1
T33 chain: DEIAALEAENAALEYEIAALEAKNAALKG

O9 = target: T34, O9; assay: two-hybrid library CCNG1
T34 chain: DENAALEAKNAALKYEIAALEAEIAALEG

Sequence of 4H_GCN4 (chain, as listed by the source): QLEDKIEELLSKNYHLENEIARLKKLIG

DENAALEAKIAALKAKIAALKAKNAALKG [4H1392-AA] gave an interaction score (4H1392-AA) of -0.666, an interaction score (4H2622-AA) of -1.4 and an interaction score (4H2705-AA) of -1.59. It also gave an interaction score (4H2736-AA) of -1.42, an interaction score (4H2888-AA) of -0.448 and an interaction score (4H3049-AA) of -0.0185. For the same binder, the interaction score (4H3129-AA) was -1.07, the interaction score (4H337-AA) was -0.783 and the interaction score (4H3587-AA) was 2.24. The interaction score (4H3590-AA) was 1.89, the interaction score (4H3625-AA) was -0.223 and the interaction score (4H384-AA) was -1.28. For the same binder, the interaction score (4H3905-AA) was 0.91, the interaction score (4H4038-AA) was 0.56 and the interaction score (4H43-AA) was 1.25. It also gave an interaction score (4H451-AA) of -0.924, an interaction score (4H510-AA) of -1.62 and an interaction score (4H_APH) of -1.59. For the same binder, the interaction score (4H_BCR) was -2.2, the interaction score (4H_GCN4) was -1.48 and the interaction score (GCN2_T) was -1.63. The interaction score (O11-AA) was 1.25, the interaction score (O13-AA) was -1.99 and the interaction score (O14-AA) was 0.474.

DKNAALKAKIAALKYKNAALKAEIAALEG [O13] was tested, and the interaction score (O13) was -2.48, the interaction score (O14) was 1.68 and the interaction score (O15) was 1.46. It also gave an interaction score (O16) of -2.61, an interaction score (O2) of -2.42 and an interaction score (O3) of -2.26. For the same binder, the interaction score (O4) was -2.24, the interaction score (O5) was -1.38 and the interaction score (O6) was -1.32. The interaction score (O7) was -2.53, the interaction score (O8) was -1.26 and the interaction score (O9) was -2.39.

With DENAALEAEIAALEYENAALEAKIAALKG [O14] the interaction score (O14) was -2.21, the interaction score (O15) was -1.64 and the interaction score (O16) was 0.545. The interaction score (O2) was -1.4, the interaction score (O3) was -1.94 and the interaction score (O4) was -1.11. The interaction score (O5) was 0.398, the interaction score (O6) was 0.213 and the interaction score (O7) was 0.14. The interaction score (O8) was -2.34 and the interaction score (O9) was -2.25.

Source: PMC10397247
